The record followed here is patent US20240392013A1, “IL1RAP ANTIBODIES AND USES THEREOF” (STELEXIS THERAPEUTICS, LLC, priority 2021, published 2024).

In general, IC50 refers to the concentration that gives 50% inhibition.

The test system of assay [1] is IL1-induced NFκB activity. In words: HEK-BlueIL1β NFκB Reporter Assay. The class given is cell-based. Particulars: nM range, read-out: IC50, inhibition of IL1-induced NFκB activity. Here is the method:
The HEK-Blue IL1β (Invivogen, Cat #hkb-il1b) cell line was used to monitor NFκB activity upon stimulation with IL1β cytokine. In this cell line the secreted embryonic alkaline phosphatase reporter gene (SEAP) is inducibly expressed under the control of IFN-β minimal promoter fused to NFκB/AP-1. Specificity to IL1β cytokine was achieved by blockage of TNF-α response. The cells were maintained in the presence of hygromycin (200 μg/ml) and zeocin (100 μg/ml).
For the functional assay, cells were plated at a density of 5×10^4 cells/well in 96-well plates. Cells were treated with each antibody at the highest concentration of 200 μg/ml followed by seven serial 1:3 dilutions and incubated for 45 minutes at 37° C./5% CO2 in humified incubator. Cells were then stimulated with IL1β ([…]) and incubated overnight at 37° C./5% CO2 in humified incubator. Every treatment was conducted in triplicates. Following, supernatants from each well were mixed with Quanti-Blue substrate (Invivogen, CA USA; Cat #rep-qb1) according to manufacturer's recommendations and secreted SEAP was measured using spectrophotometer at 650 nm.
Background: Reporter assays use an easily measured gene product as a stand-in for the process of interest.

The target of assay [2] is T1, hIL1RAP (Homo sapiens, UniProt Q9NPH3).
T1 sequence (Q9NPH3 21-367 limits assumed): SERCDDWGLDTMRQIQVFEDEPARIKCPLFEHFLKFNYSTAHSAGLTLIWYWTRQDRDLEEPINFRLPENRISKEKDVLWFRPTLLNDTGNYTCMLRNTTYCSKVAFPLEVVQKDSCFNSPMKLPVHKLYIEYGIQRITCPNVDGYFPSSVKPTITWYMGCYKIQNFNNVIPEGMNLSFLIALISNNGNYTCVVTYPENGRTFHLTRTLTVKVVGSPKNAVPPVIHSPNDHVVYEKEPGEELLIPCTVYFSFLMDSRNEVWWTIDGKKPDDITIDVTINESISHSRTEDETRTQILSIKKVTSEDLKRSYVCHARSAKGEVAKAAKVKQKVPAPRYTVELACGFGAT
The assay is described as follows: Binding of mAbs to human IL1RAP protein by cell-free ELISA. Particulars: FIG. 1. More on the design: extracellular domain His-tagged, Cat #10121-H08H; His; purchased Sino Biological 10121-H08H. Here is the method: Recombinant human or mouse IL1RAP proteins (Sino Biological, Beijing, China; Cat #10121-H08H and Sino Biological, Cat #52657-M08H respectively) were diluted in PBS, pH 7.4 at concentration of 1 μg/ml, coated on high-binding 384-well clear plates and incubated overnight at 4° C. Following, plates were washed 3× with 0.05% Tween-20 in PBS, pH 7.5 and then blocked with 1% BSA in PBS for 1 hour at room temperature. After 3× washes, wells were incubated with each antibody at the highest concentration of 100 nM followed by seven serial half log dilutions (in 1% BSA and 0.05% Tween-20 in PBS) for 1 hour at room temperature. Plates were then washed 3× and incubated with […] detection antibody (Medna, TX, USA; Cat #D8212, 0.5 μg/ml diluted in 0.02% Tween-20 in PBS). After 5× washes, Supersignal ELISA Pico substrate (Thermofisher, MA, USA; Cat #37069) was applied to wells and chemiluminescent signal was read on Sprectramax L for 200 ms/well. Similarly, detection with specific κ and λ antibodies was conducted to define light chain isotyping.
Binding of mAbs to human IL1RAP protein was determined by cell-free ELISA. mAbs bound to human IL1RAP and EC50 values were calculated at the nM range.

Assay [3] deals with IL33-induced NFκB activity. The assay is described as follows: HEK-BlueIL33 NFκB Reporter Assay. The assay is classed as cell-based, human. Particulars: nM range, read-out: IC50, inhibition of IL33-induced NFκB activity. An excerpt:
HEK-Blue IL33 (Invivogen, Cat #hkb-hil33) cell line was used to monitor NFκB activity upon stimulation with IL33 cytokine. The secreted embryonic alkaline phosphatase reporter gene (SEAP) is inducible expressed under the control of IFN-β minimal promoter fused to NFκB/AP-1. HEK-BlueIL33 cells were also generated upon stable transfection with human IL1RL1 (ST2) gene. Specificity to IL33 cytokine was achieved by blockage of TNF-α and IL1 response. Cells are maintained in the presence of hygromycin (200 μg/ml), zeocin (100 μg/ml) and blasticidin (10 μg/ml).
For the functional assay, cells were plated at a density of 5×10^4 cells/well in 96-well plates. Cells were treated with each antibody at the highest concentration of 200 μg/ml followed by seven serial 1:3 dilutions and incubated for 45 minutes at 37° C./5% CO^2 in humified incubator. Cells were then stimulated with IL33 (12 μM) and incubated overnight at 37° C./5% CO2 in humified incubator. Every treatment was conducted in triplicates. Following, supernatants from each well were mixed with Quanti-Blue substrate (Invivogen, Cat #rep-qb1) according to manufacturer's recommendations and secreted SEAP was measured using spectrophotometer at 650 nm.

B1: 74804_12A21B: anti-IL1RAP mAb; VH SEQ ID NO:6, VL SEQ ID NO:23, κ light chain (antibody, V domains shown)
VH: QVQLLQSGAEVKKPGSSVKVSCKASGGTFSIYAIDWVRQAPGQGLEWMGGIIPIFGTANSAQKFQGRVTITADKSTSTAYMELSSLRSEDTAVYYCARNGATSDAFDMWGQGTMVTVSS
VL: EIVLTQSPGTLSLSPGERATLSCRASLSVSSNYLAWFQQRPGQAPRLLIHGVSRRATGIPDRFSGSGSGTDFTLTISRLEPEDFAVYYCQQYGSSPLTFGGGTKVEIK
modifications: 74804_12A21B VH and 74804_29D13A VH; 74804_12A21B VL
With B1, in assay [1], the IC50 stood at 1.31 nM. Also, in assay [2], the “Binding to human IL1RAP” value is on record as “bound to human IL1RAP in a dose dependent manner”.

B2: 74804_43F04A: anti-IL1RAP mAb; VH SEQ ID NO:7, VL SEQ ID NO:22, κ light chain (antibody, V domains shown)
VH: QVQLLQSGAEVKKPGSSVKVSCKASGGTFSIYAIDWVRQAPGQGLEWMGGIIPIFGTENSAQNFQGRITITADKSTNTAYMELSSLRSEDTAVYYCARNGATSDAFDIWGQGTMVTVFS
VL: EIVLTQSPGTLSLSPGERATLSCRASLSVSSNYLAWFQQRPGQAPRLLIYGVSRRATGIPDRFSGSGSGTDFTLTISRLEPEDFAVYYCQQYGSSPLTFGGGTKVEIK
modifications: 74804_43F04A VH; 74804_07K10A VL, 74804_29D13A VL and 74804_43F04A VL
With B2, the 50% inhibitory concentration (IC50) in assay [3] was found to be 9.62 nM; in assay [1], 2.29 nM. Also, in assay [2], the “Binding to human IL1RAP” value is reported as “bound to human IL1RAP in a dose dependent manner”.
